Target: T1, recombinant ECD of EGFR (UniProt P00533 25-645)
T1 construct: Epidermal growth factor receptor, recombinant extracellular domain immobilised for SPR; Source, limits and tags may be told in the Supplemental Methods
Test: SPR; BIAcore S200, room temperature; recombinant ECD of EGFR immobilised on a CM5 chip by amine coupling; purified rCGA injected at 30 μL/min for 60 seconds, dissociation 100 seconds; 1:1 Langmuir binding model
Conditions: both partners purified

B1: recombinant human CGA (glycoprotein hormone α polypeptide), 6×His tag removed (natural protein)
chain: not shown
notes: Glycoprotein hormones alpha chain (CGA), human; CGA ORF in a modified pHL-sec vector, secreted protein; engineered enterokinase site at the C-terminus before the 6×His tag; Made in mammalian cells; Residues of the enterokinase site may be left at the C-terminus after digestion; also called rCGA; α-subunit of glycoprotein hormones; not shown: His6, C-terminal, cleaved
  Kd: 11.8 µM

Source: article PMC8920335, “A CGA/EGFR/GATA2 positive feedback circuit confers chemoresistance in gastric cancer” (The Journal of Clinical Investigation, 2022)
